Laboratory results published in doi:10.1101/2022.08.08.503141 (bioRxiv, 2022).

Target: winged-helix domain 32C of human RPA (residues 172-270 of RPA2) (human, UniProt P15927 172-270)
Experiment: NMR titration

winged-helix domain 32C of human RPA (residues 172-270 of RPA2), sequence (P15927 172-270): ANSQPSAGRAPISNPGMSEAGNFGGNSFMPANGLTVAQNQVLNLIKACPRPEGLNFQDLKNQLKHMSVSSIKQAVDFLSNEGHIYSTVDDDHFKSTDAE

binding result: binds
B1: harmonin homology domain 2 (HHD2) of human RTEL1, residues 1056-1140 (domain or fragment)
chain: GQHAVSAYLADARRALGSAGCSQLLAALTAYKQDDDLDKVLAVLAALTTAKPEDFPLLHRFSMFVRPHHKQRFSQTCTDLTGRPY
